Test results reported in patent US20080050810A1.
Substitutions are numbered along the chain they refer to.

B1: HuCC49 CDR variant L-1 (antibody, V domains shown)
VH: QVQLVQSGAEVVKPGASVKISCKASGYTFTDHAIHWVKQNPGQRLEWIGYFSPGNDDFKYNERFKGKATLTADTSASTAYVELSSLRSEDTAVYFCTRSLNMAYWGQGTLVTVSS
VL: DIVMSQSPDSLAVSLGERVTLNCKSSQSVLYSSNSKNYLAWYQQKPGQSPKLLIYWASARESGVPDRFSGSGSGTDFTLTISSVQAEDVAVYYCQQYYSYPLTFGAGTKLELK
B2: HuCC49 CDR variant H-2 (antibody, V domains shown)
VH: QVQLVQSGAEVVKPGASVKISCKASGYTFTDHAIHWVKQNPGQRLEWIGWINAGNGNTKYSQKFQGKATLTADTSASTAYVELSSLRSEDTAVYFCTRSLNMAYWGQGTLVTVSS
VL: B1 VL with V29L, S33G, S35Q
B3: HuCC49 SDR variant ^97L (antibody, V domains shown)
VH: B1 VH
VL: B1 VL with V29L, S33G, S35Q, T103S
B4: HuCC49 variant MAb ^97L/^60-62,64H (antibody, V domains shown)
VH: B1 VH with N61S, E62Q, R63K, K65Q
VL: B1 VL with V29L, S33G, S35Q, T103S
B5: HuCC49 CDR variant H-1 (antibody, V domains shown)
VH: B1 VH with D31S, H32Y, I34M
VL: B1 VL with V29L, S33G, S35Q
B6: HuCC49 SDR variant ^60-62,64H (antibody, V domains shown)
VH: B1 VH with N61S, E62Q, R63K, K65Q
VL: B1 VL with V29L, S33G, S35Q
B7: HuCC49 CDR variant L-3 (antibody, V domains shown)
VH: B1 VH
VL: B1 VL with V29L, S33G, S35Q, Y100T, L102Y, T103S
B8: HuCC49 variant MAb ^97L1,2/^60-62,64H (antibody, V domains shown)
VH: B1 VH with N61S, E62Q, R63K, K65Q
VL: B1 VL with A59T, T103S
B9: HuCC49 CDR variant L-2 (antibody, V domains shown)
VH: B1 VH
VL: B1 VL with V29L, S33G, S35Q, A59T
B10: HuCC49 CDR variant L-1,2 (antibody, V domains shown)
VH: B1 VH
VL: B1 VL with A59T
B11: HuCC49 CDR variant H-3 (antibody, V domains shown)
VH: QVQLVQSGAEVVKPGASVKISCKASGYTFTDHAIHWVKQNPGQRLEWIGYFSPGNDDFKYNERFKGKATLTADTSASTAYVELSSLRSEDTAVYFCTRGGYYGSGSGSNYWGQGTLVTVSS
VL: B1 VL with V29L, S33G, S35Q
B12: humanized monoclonal antibody HuCC49 (parental HuCC49) (antibody, V domains shown)
VH: B1 VH
VL: B1 VL with V29L, S33G, S35Q
B13: HuCC49 variant ^97L1,2 (antibody, V domains shown)
VH: B1 VH
VL: B1 VL with A59T, T103S

Legend:
[1] = biological target: TAG-72 positive bovine submaxillary mucin (BSM) (bovine); assay: relative affinity constant from competition RIA on BSM
[2] = biological target: anti-idiotypic antibodies in the serum of one patient who had received ^177Lu-CC49 (Example V, patient not named); assay: size-exclusion HPLC competition vs 125I-HuCC49 + patient serum
[3] = biological target: anti-CC49 variable region antibodies in the serum of patient five; assay: HPLC, 125I-HuCC49 + serum + 5 Tg competitor; fewer complexes = competitor bound
[4] = biological target: anti-CC49 variable region antibodies in the serum of patient six; assay: as above
[5] = biological target: anti-CC49 variable region antibodies in the serum of patient two; assay: as above
[6] = biological target: anti-CC49 variable region antibodies in the serum of patient four; assay: as above
[7] = biological target: anti-CC49 variable region antibodies in the serum of patient three; assay: as above
[8] = biological target: anti-CC49 variable region antibodies in the serum of patient one; assay: as above
[9] = biological target: mouse anti-idiotypic MAb AI49-1; assay: competition RIA vs 125I-CC49 on AI49-1-coated wells
[10] = biological target: mouse anti-idiotypic MAb AI49-3; assay: competition RIA vs 125I-CC49 on AI49-3-coated wells
[11] = biological target: anti-CC49 variable region antibodies in the serum of patient six; assay: HPLC, serial dilutions of cold competitor vs 125I-HuCC49 + CP serum

fold less Ka than HuCC49 [1] [fold]	Ka [1] [M⁻¹]	Binder	percent of complexes [3] [%]	percent of complexes [4] [%]	percent of complexes [5] [%]	percent of complexes [6] [%]	percent of complexes [7] [%]	percent of complexes [8] [%]	other results
2	–	B1	14.3	16.9	10.1	9.8	12.2	16	amount of competitor for 50% inhibition of complex formation [2]: 0.7 Tg
300	–	B2	36.6	29.7	24.7	12.7	32.5	32.7	fold more competitor for 50% inhibition than HuCC49 [9]: 4 to 15 fold; fold more competitor for 50% inhibition than HuCC49 [10]: 4 to 15 fold; amount of competitor for 50% inhibition of complex formation [2]: > 10 Tg
–	3.6e+08	B3	–	–	–	–	–	–	–
–	5.48e+08	B4	–	–	–	–	–	–	–
–	–	B5	3.5	5.8	7	3.3	3.9	10.2	–
–	2.2e+08	B6	–	–	–	–	–	–	–
–	–	B7	46.7	33.5	37.6	22.4	48.2	34.8	–
3	–	B8	–	–	–	–	–	–	percent competition at 1 Tg [11]: < 25%
–	–	B9	2.4	3	4.4	2.7	3.4	2.7	fold better competition than HuCC49 [2]: 2 fold
2	–	B10	20.2	15.7	19.4	12.6	24.5	24.6	–
–	–	B11	4.6	6.7	8.2	3.7	5.1	7.3	amount of competitor for 50% inhibition of complex formation [2]: 0.4 Tg
–	3.2e+08	B12	3	1.5	0.5	2.6	0	0	amount of competitor for 25% competition [11]: 60 ng; amount of competitor for 50% competition [11]: 250 ng
2 to 3	1.4e+08	B13	–	–	–	–	–	–	–
